Assay results reported in the supplement of paper PMC10126150.
± gives the standard deviation of the averaged measurements.

test system: ATP; assay: switch fluorescence ratio, 500 uM ATP over buffer (Cy3 cluster intensity, sum of 5 cycles each) (fold (ratio)); higher = stronger signal-on switching upon ATP binding; sequences stand for … in TCGTCGGCAGCGTCAGATGTGTATAAGAGACAGTTTTTTTTTTTTTTTTTTTTTTTTT…TC; settings: aptamer strand: ATP DNA aptamer (quencher-CACCTGGGGGAGTATTGCGGAGGAAGG + anchor), 100 nM annealed; ATP concentration: 500 uM
How it was run: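 Per cluster, summed Cy3 intensity from the target cycles was divided by that from the buffer cycles to give the fluorescence ratio, then averaged per switch-domain sequence. Clusters outside 100-1000 RFU were excluded. The Cy3-labelled switching-strand clusters, on a modified Illumina MiSeq flow-cell, were annealed to 100 nM quencher-labelled ATP aptamer and imaged in selection buffer, then after 15 min with 500 uM ATP at 22 °C, for five cycles with NaOH stripping and re-annealing between them.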
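Further: ATP exposure 15 min at 22 °C before imaging.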

Row | Sequence | switch fluorescence ratio
1 | GGGGAGAGCG | 1.01 ± 0.034
2 | ATTGGGGAT | 1.02 ± 0.018
3 | ATGTAGTCGG | 0.978 ± 0.012
4 | CGGTTACCAG | 1.03 ± 0.013
5 | ATTATATAGC | 0.996 ± 0.031
6 | GCATCTGTAG | 1 ± 0.067
7 | GGGTATAGCC | 0.9807 ± 0.0066
8 | AGAACTGTAA | 1.08 ± 0.034
9 | TTAAGGGAGC | 1.02 ± 0.052
10 | TCAAACGCTT | 1.12 ± 0.15
11 | TGACTTATGT | 1.014 ± 0.0037
12 | CGGGTGGTGG | 0.99 ± 0.017
13 | GAATGGTTTC | 0.9947 ± 0.0053
14 | GTTAGTTTGG | 1 ± 0.015
15 | GCCAGGTTCC | 1.09 ± 0.034
16 | AGAGAGGTTA | 1.02 ± 0.014
17 | GTCGGGCGTA | 0.991 ± 0.016
18 | TACTCGGTTT | 0.98 ± 0.014
19 | AGTTCACTAT | 0.975 ± 0.011
20 | TGCTGGTGCC | 1.02 ± 0.013
21 | AAGGGTTCCG | 1.01 ± 0.047
22 | CTAGGGTAAT | 0.9675 ± 0.0036
23 | GGGAAAAGAT | 0.978 ± 0.042

Row | Sequence | switch fluorescence ratio
24 | TTAATTGTGT | 0.993 ± 0.0095
25 | GGTGGGGGCC | 1.03 ± 0.011
26 | GGCCACGTAG | 1.02 ± 0.022
27 | GTTTTGTAAG | 1 ± 0.023
28 | TTTTTGTAAC | 1.01 ± 0.022
29 | TTTAAGACC | 0.979 ± 0.015
30 | GTTCGCGGGG | 1.06 ± 0.12
31 | ATCGGATTAG | 0.995 ± 0.0094
32 | TTGAAGCAGC | 1.45 ± 0.2
33 | TTGGTAGGAG | 0.985 ± 0.042
34 | TCGTAGTCGT | 0.995 ± 0.064
35 | AGCTTTGGTA | 1.016 ± 0.0026
36 | AGGAGCTCGG | 0.994 ± 0.013
37 | TTAACGTAAG | 1 ± 0.037
38 | TTCGCTTAGG | 0.993 ± 0.026
39 | TTCCCGGCTG | 1.03 ± 0.016
40 | TTAATGAATA | 1.01 ± 0.035
41 | AGGATGTAGG | 1.02 ± 0.035
42 | AGGCGGATCG | 0.99 ± 0.085
43 | GCTTCAGTGA | 1.02 ± 0.019
44 | CCCGGGGTGT | 3.55 ± 0.15
45 | TAATTTGGGT | 1 ± 0.015
46 | TCCTGACGTC | 1.043 ± 0.0039

Row | Sequence | switch fluorescence ratio
47 | TGAAGATTAT | 0.988 ± 0.012
48 | GGGGTAGAGG | 0.977 ± 0.015
49 | TGCAAGAAGT | 1.022 ± 0.0069
50 | AGGGGGTTAA | 0.996 ± 0.017
51 | AAATAGGGGA | 0.989 ± 0.039
52 | AGTAGCAGCG | 0.963 ± 0.04
53 | TAGGGCGTTC | 1.02 ± 0.079
54 | TTTTTGGGAC | 1.03 ± 0.045
55 | AATGTGTATG | 0.991 ± 0.033
56 | ATCAGGGTGT | 1.16 ± 0.031
57 | GAGTTTGGTT | 0.98 ± 0.063
58 | TCTGTGAGGT | 1.034 ± 0.0072
59 | TGGGGATTTC | 1.1 ± 0.16
60 | AAGAATCTGC | 0.985 ± 0.051
61 | TTTTTTTCTA | 0.99 ± 0.014
62 | AGGTTTAGGG | 1.03 ± 0.034
63 | TCAGAATTGG | 1.01 ± 0.028
64 | GATCTTATCT | 1.03 ± 0.022
65 | ACAGGGGGGT | 1.17 ± 0.24
66 | TTCCACGAAG | 0.996 ± 0.012
67 | CCGTCTGGCG | 0.9959 ± 0.0067
68 | CGCAGGGGGT | 1.01 ± 0.039
69 | AATATTGAAC | 0.99 ± 0.036

Row | Sequence | switch fluorescence ratio
70 | TTGGTGACGG | 0.986 ± 0.013
71 | AATGGGTCTA | 0.985 ± 0.02
72 | ATCTCCGGTT | 1.1 ± 0.17
73 | TGGGAGGGAT | 0.989 ± 0.021
74 | TATTTTGCGG | 0.987 ± 0.035
75 | ATCTAAACTT | 1.02 ± 0.035
76 | TAAGGGGTGC | 1.06 ± 0.014
77 | TAGGGGTCGT | 1 ± 0.02
78 | TTAAGCCTG | 1.012 ± 0.0021
79 | AGACAATTCA | 1.02 ± 0.019
80 | TGTTTACACT | 1.01 ± 0.051
81 | GGGTGCAGGG | 0.9932 ± 0.0059
82 | TAGAGAGCTT | 0.986 ± 0.036
83 | ATGTCCATTA | 0.994 ± 0.01
84 | ATTGGAAAGG | 0.985 ± 0.031
85 | GAAGGCCCGT | 0.991 ± 0.037
86 | TTTGTCGTTT | 1.03 ± 0.055
87 | GGTTCTTCAA | 1.01 ± 0.023
88 | CGGGGAAATC | 1.03 ± 0.035
89 | AATCGGTTCT | 0.979 ± 0.05
90 | CATGTTGGAT | 0.964 ± 0.029
91 | CAGAGTCGGT | 1 ± 0.024
92 | GCACCGGGGC | 0.971 ± 0.015

Row | Sequence | switch fluorescence ratio
93 | ATGGATGAGA | 0.989 ± 0.03
94 | AGGGAAAATG | 0.967 ± 0.033
95 | TGCCACTGGG | 1.06 ± 0.019
96 | AGGTTAGGGG | 0.998 ± 0.037
97 | GGTACTAATA | 1.023 ± 0.007
98 | ATTCATAGTA | 0.9772 ± 0.0064
99 | AAGAGTTCTG | 1 ± 0.011
100 | GGGTGGGCCT | 0.989 ± 0.042
101 | TATGAGATCG | 1.03 ± 0.069
102 | TAGGTTAAAG | 1.01 ± 0.027
103 | TGATGCATCG | 1 ± 0.034
104 | AGAGGAGTTG | 1.03 ± 0.046
105 | GTGTGCCTGG | 0.985 ± 0.055
106 | CACACCGGCA | 1.093 ± 0.0043
107 | TGTGCTAGGG | 0.98 ± 0.028
108 | AATATTATGA | 1.01 ± 0.012
109 | GTTCTTGAAA | 0.977 ± 0.036
110 | AACTGTTGG | 0.9895 ± 0.006
111 | CATTTAGGGA | 1.01 ± 0.029
112 | ATCGTCACGG | 1.022 ± 0.0012
113 | ATGCAGGGTT | 0.978 ± 0.053
114 | AGCGTACTCG | 1.11 ± 0.047
115 | CAAAACGGGG | 1.15 ± 0.18

Row | Sequence | switch fluorescence ratio
116 | GATGGGGGCG | 1.03 ± 0.093
117 | GTGGCTCAGG | 1.05 ± 0.054
118 | AGGCGGGTTG | 0.993 ± 0.026
119 | TGGGTTTTGT | 1.01 ± 0.029
120 | CGTACTTAGC | 1.069 ± 0.0034
121 | TGGGTGGATC | 1.02 ± 0.056
122 | AGTGGTTCG | 1 ± 0.018
123 | GCCCGTGGAA | 0.9893 ± 0.0057
124 | AGTTTACGAT | 1.037 ± 0.0099
125 | GACGTTAGGG | 0.957 ± 0.042
126 | ATCTGCCTGC | 1.074 ± 0.009
127 | GTTTGGGGCC | 1.057 ± 0.01
128 | CCTCTGGGGA | 1.82 ± 0.94
129 | TAATTTTAGT | 1.0092 ± 0.00027
130 | AAGAACGGTA | 1.06 ± 0.043
131 | ATCGGGAACT | 1.02 ± 0.015
132 | TAGGGTAGTG | 1.01 ± 0.021
133 | AGCAAGTCCT | 1.12 ± 0.015
134 | TAAGGGTTTG | 0.977 ± 0.036
135 | CTTGAAGGTG | 1.595 ± 0.015
136 | TTGTAAGGGT | 0.978 ± 0.017
137 | CGGGGGGACT | 0.998 ± 0.059
138 | ACTCGAAAAA | 1.04 ± 0.026

Row | Sequence | switch fluorescence ratio
139 | ATACCTGAGC | 1.113 ± 0.0041
140 | AGGTGACTCG | 1.04 ± 0.017
141 | TTATCGGCCA | 1 ± 0.067
142 | GTTGGGGCGT | 0.97 ± 0.044
143 | GCAAGATTCA | 1 ± 0.021
144 | CGGAACAATG | 1.3945 ± 0.00059
145 | CATGATGAGA | 0.969 ± 0.035
146 | GGCGTAAGTG | 0.953 ± 0.027
147 | ACGGGGATTT | 1.01 ± 0.019
148 | GTGGTGAGTG | 0.97 ± 0.021
149 | TTGCACGGGT | 1.01 ± 0.02
150 | ATGGTTTGGC | 1 ± 0.049
151 | TACATCTGAA | 0.993 ± 0.023
152 | AAATTGGGCA | 0.997 ± 0.029
153 | AATTAGTGTT | 0.99 ± 0.02
154 | TTAGAAATGT | 1.42 ± 0.84
155 | GTGGGTATTG | 1 ± 0.02
156 | TAAAAATGGT | 1.01 ± 0.024
157 | AATCGAGTCC | 1.107 ± 0.011
